Source: patent US6602854B1, “Branched multimeric Apo A-I agonist compounds” (priority 1997, dated 2003)
Where no end group is shown, it is not given here. [ ]: non-standard residue; d: D form. Nal = non-natural residue; Aib = CC(C)(N)C(=O)O

Key:
[1] = Circular dichroism: degree of helicity (free, SUVs, micelles, TFE); conditions: for He (%) free: percent helicity of free, unbound peptide; for He (%) SUVs: percent helicity of peptide-SUV complexes; for He (%) TFE: percent helicity of peptide-TFE solution; for He (%) mics: percent helicity of peptide-micelle complexes
Protocol: Far UV circular dichroism spectra were recorded between 190 and 260 nm (in 0.5 nm or 0.2 nm increments) with a AVIV62DS spectrometer (AVIV Associates, Lakewood, N.J., USA) equipped with a thermoelectric cell holder and sample changer. The instrument was calibrated with (+)-10-camphoric acid. Between one and three scans were collected for each sample, using 10 cm, 5 cm, 1 cm and 0.1 cm path length quartz Suprasil cells, respectively, for peptide concentrations of 10^−7 M to 10^−4 M. The bandwidth was fixed at 1.5 nm and the scan speed to 1 s per wavelength step. The reported data are the mean of at least 2 or 3 independent measurements.
After background substraction, spectra were converted to molar ellipticity (θ) per residue in deg. […] dmol^−1. The peptide concentration was determined by amino acid analysis and also by absorption spectrometry on a Perkin Elmer Lambda 17 UV/Visible spectrophotometer when the peptide contained a chromophore (tryptophane, dansyl, naphtylalanine).
CD spectra were obtained with free, unbound peptide (5 μM in 5 mM phosphate buffer, pH 7.4); with peptide-SUV complexes (20:1 EPC:Chol., Ri=30 and Ri=50); with peptide-micelle complexes (1-myristoyl-2-hydroxy-sn-glycero-3-phosphatidyl choline, Ri=100); and with free, unbound peptide in the presence of 2,2,2-trifluoroethanol (TFE) (5 μM peptide, 90% vol TFE).
The SUVs were obtained by dispersing the lipids (10 mM, 20:1 EPC:Chol., Avanti Polar Lipids, Ala.) in phosphate buffer (5 mM, pH 7.4) with bubbling N2 for 5 min., followed by sonication (1.5 hr.) in a bath sonicator. The homogeneity of the preparation was checked by FPLC.
The micelles were obtained by dispersing the lipid (6 mM 1-myristoyl-2-hydroxy-sn-glycero-3-phosphatidyl choline, Avanti Polar Lipids, AL) in phosphate buffer (5 mM, pH 7.4) with bubbling N2 for 5 min., followed by vortexing.
To obtain the peptide-SUV complexes, SUVs were added to the peptide (5 μM in 5 mM phosphate buffer, pH 7.4) at a phospholipid-peptide molar ratio (Ri) of 30 or 50.
To obtain the peptide-micelle complexes, micelles were added to the peptide (5 μM in 5 mM phosphate buffer, pH 7.4) at a Ri of 100.
All spectra were recorded at 37° C. The stability of peptide 4 (SEQ ID NO:4) as a function of temperature (both free in buffer and in micelles) was determined by recording spectra at a series of different temperatures.
The degree of helicity of peptide 4 (SEQ ID NO:4) as a function of concentration was also determined.
The degree of helicity of the peptides in the various conditions was determined from the mean residue ellipticity at 222 nm (Chen et al., 1974, Biochemistry 13:3350-3359) or by comparing the CD spectra obtained to reference spectra available on databases (16 helical reference spectra from Provencher & Glockner, 1981, Biochemistry 20:33-37; denatured protein reference spectra from Venyaminov et al., 1993, Anal. Biochem. 214:17-24) using the CONTIN curve-fitting algorithm version 2DP, CD-1 pack (Aug. 1982) (Provencher, 1982, Comput. Phys. Commun. 27:213-227, 229-242). Acceptable fit was determined using the statistical analysis methodology provided by the CONTIN algorithm.

[2] = HDL cholesterol in rabbits after injection of phospholipid/peptide complexes; type: in vivo, Male New Zealand White rabbits
Protocol: Small discoidal particles consisting of phospholipid (DPPC) and peptide were prepared following the cholate dialysis method. The phospholipid was dissolved in chloroform and dried under a stream of nitrogen. The peptide was dissolved in buffer (saline) at a concentration of 1-2 mg/ml. The lipid film was redissolved in buffer containing cholate (43° C.) and the peptide solution was added at a 3:1 phospholipid/peptide weight ratio. The mixture was incubated overnight at 43° C. and then dialyzed at 43° C. (24 hr.), room temperature (24 hr.) and 4° C. (24 hr.), with three changes of buffer (large volumes) at temperature point. The complexes were filter sterilized (0.22 μm) for injection and storage at 4° C.
Male New Zealand White rabbits (2.5-3 kg) were injected intravenously with a dose of phospholipid/peptide complex (5 or 10 mg/kg bodyweight, expressed as peptide) in a single bolus injection not exceeding 10-15 ml. The animals were slightly sedated before the manipulations. Blood samples (collected on EDTA) were taken before and 5, 15, 30, 60, 240 and 1440 minutes after injection. The hematocrit (Hct) was determined for each sample. Samples were aliquoted and stored at −20° C. before analysis.
Plasma Lipids. The total plasma cholesterol, plasma triglycerides and plasma phospholipids were determined enzymatically using commercially available assays according to the manufacturer's protocols (Boehringer Mannheim, Mannheim, Germany and Biomerieux, 69280, Marcy-L'étoile, France).
Lipoprotein Profiles. The plasma lipoprotein profiles of the fractions obtained after the separation of the plasma into its lipoprotein fractions were determined by spinning in a sucrose density gradient. The fractions were collected and in each individual fraction the phospholipid and cholesterol content was measured enzymatically.

Substance | He (%) free [1] [%] | He (%) SUVs [1] [%] | He (%) TFE [1] [%] | He (%) mics [1] [%] | also measured
PVLDLFRELLNELLEWLKQKLK [peptide 3] | 70 | 80 | 95 | 95 | Increase (%) in HDL cholesterol ([2]; 10 mg/kg as peptide/DPPC complexes, 15 min): 84%; Increase (%) in HDL cholesterol ([2]; 10 mg/kg as peptide/DPPC complexes, 30 min): 71%; Increase (%) in HDL cholesterol ([2]; 10 mg/kg as peptide/DPPC complexes, 60 min): 60%; Increase (%) in HDL cholesterol ([2]; 10 mg/kg as peptide/DPPC complexes, 240 min): 14.5%
PVLDLFRELLNELLEZLKQKLK (PVLDLFRELLNELLE[Nal]LKQKLK; not fully specified) [peptide 1, Z is Nal] | 77 | 81 | 69 | 85 | Increase (%) in HDL cholesterol ([2]; 5 mg/kg as peptide/DPPC complexes, 15 min): 24.3%; Increase (%) in HDL cholesterol ([2]; 5 mg/kg as peptide/DPPC complexes, 30 min): 95%; Increase (%) in HDL cholesterol ([2]; 5 mg/kg as peptide/DPPC complexes, 60 min): 40.7%; Increase (%) in HDL cholesterol ([2]; 5 mg/kg as peptide/DPPC complexes, 240 min): 29%
70 (PVLDEFRELLYE[Aib]LEALKQKLK) [compound 70] | 27 | 33 | 66 | 78 | –
49 (PVLDLFRNLLEKLLEALEQKLK) [compound 49] | 57 | 52 | 57 | 65 | –
PVLDEFREKLNEALEALKQKLK [peptide 94, reference compound] | 18 | 27 | 63 | 70 | –
41 (PVLDLWRELLNE[Aib]LEALKQKLK) [compound 41] | 53 | 85 | 69 | 73 | –
146 (PVLELFENLLERLLDALQKKLK) [compound 146] | 97 | 100 | 95 | 100 | –
46 (PVLDLFREKLNE[Aib]LEALKQKLK) [compound 46] | 30 | 58 | 85 | 86 | –
62 (PVLDEWREKLNE[Aib]LEALKQKLK) [compound 62] | 15 | 43 | – | 85 | –
42 (PVLDEFREKLNE[Aib]WEALKQKLK) [compound 42] | 15 | 27 | 76 | 74 | –
105 (PAADAFREAANEAAEAAKQKAK) [compound 105] | 29 | 32 | 65 | 28 | –
PVLDLFRELLNEGLEALKQKLK [peptide 8] | 20 | 61 | 93 | 90 | % helicity in the presence of TFE [1]: 93%; helical structure in the presence of lipids [1]: 61-93%; % Helicity Free ([1]; peptide concentration 5.0 μM, free in buffer): 20%
197 (Ac-PLLDLFRELLEELKQKLK-NH2) [compound 197] | 43 | – | 69 | 70 | –
164 (PVLELFENLLERLLDAWQKKLK) [compound 164] | 37 | 51 | 61 | 66 | –
194 (Ac-PVLELFRELLEELKQKLK-NH2) [compound 194] | 38 | – | 93 | 93 | –
39 (PVLDLFRELLEELLKALKKKLK) [compound 39] | 66 | 68 | 72 | 69 | –
DWFKAFYDKVAEKFKEAF [peptide 243, reference compound] | 10 | 50 | – | 64 | –
223 (PVLDAFRELLEALAQLKK) [compound 223] | 21 | 23 | 51 | 56 | –
